As a reminder, the IC50 is the concentration that gives 50% inhibition.

The text below walks through data of patent publication US20150239980A1 (NEOTOPE BOSCIENCES, published 2015).

The target of assay [1] is T1, Recombinant human Fc-tagged MCAM IgG1-2A (human MCAM domains 1 and 2, amino acids 19-242) (human, UniProt P43121 19-242).
T1 construct: also called human MCAM IgG1-2A; MCAM Fc domains 1 and 2; not shown: human Fc tag
T1 sequence: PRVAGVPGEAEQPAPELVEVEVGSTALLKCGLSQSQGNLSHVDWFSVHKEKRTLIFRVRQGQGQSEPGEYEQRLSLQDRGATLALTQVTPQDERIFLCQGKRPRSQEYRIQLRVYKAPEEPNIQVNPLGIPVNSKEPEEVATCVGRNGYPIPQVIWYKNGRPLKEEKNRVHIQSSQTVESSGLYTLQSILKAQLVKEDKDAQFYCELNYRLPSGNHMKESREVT
Put plainly: ForteBio domain mapping as in Example 8. For orientation: BLI is a label-free optical method that tracks binding on a fibre tip over time.

The target in assay [2] is T2, human MCAM domain 3 (amino acids 244-321), Fc-tagged (human, UniProt P43121 244-321).
T2 construct: also called domain 3 of the human MCAM protein
T2 sequence: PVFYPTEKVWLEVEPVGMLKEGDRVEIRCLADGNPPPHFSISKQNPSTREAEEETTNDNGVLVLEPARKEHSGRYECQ
As to the kind of experiment: ForteBio domain mapping as in Example 8.

The target in assay [3] is T3, human MCAM domain 2 (amino acids 139-242), Fc-tagged (human, UniProt P43121 139-242).
T3 sequence: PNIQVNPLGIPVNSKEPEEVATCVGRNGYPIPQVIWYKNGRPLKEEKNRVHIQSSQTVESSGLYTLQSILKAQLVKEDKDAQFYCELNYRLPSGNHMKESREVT
Put plainly: ForteBio domain mapping as in Example 8.

For assay [4], the target named is T4, human MCAM domain 1 (amino acids 19-129), Fc-tagged (human, UniProt P43121 19-129).
T4 construct: also called MCAM Fc domain 1
T4 sequence: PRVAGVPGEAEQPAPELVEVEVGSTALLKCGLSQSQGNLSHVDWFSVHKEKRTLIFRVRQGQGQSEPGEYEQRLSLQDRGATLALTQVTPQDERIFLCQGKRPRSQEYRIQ
Put plainly: ForteBio domain mapping as in Example 8.

The target of assay [5] is T5, human MCAM (melanoma cell adhesion molecule) expressed on transfected CHO cells (human, UniProt P43121 24-646).
T5 construct: also called hMCAM; CD146
T5 chain: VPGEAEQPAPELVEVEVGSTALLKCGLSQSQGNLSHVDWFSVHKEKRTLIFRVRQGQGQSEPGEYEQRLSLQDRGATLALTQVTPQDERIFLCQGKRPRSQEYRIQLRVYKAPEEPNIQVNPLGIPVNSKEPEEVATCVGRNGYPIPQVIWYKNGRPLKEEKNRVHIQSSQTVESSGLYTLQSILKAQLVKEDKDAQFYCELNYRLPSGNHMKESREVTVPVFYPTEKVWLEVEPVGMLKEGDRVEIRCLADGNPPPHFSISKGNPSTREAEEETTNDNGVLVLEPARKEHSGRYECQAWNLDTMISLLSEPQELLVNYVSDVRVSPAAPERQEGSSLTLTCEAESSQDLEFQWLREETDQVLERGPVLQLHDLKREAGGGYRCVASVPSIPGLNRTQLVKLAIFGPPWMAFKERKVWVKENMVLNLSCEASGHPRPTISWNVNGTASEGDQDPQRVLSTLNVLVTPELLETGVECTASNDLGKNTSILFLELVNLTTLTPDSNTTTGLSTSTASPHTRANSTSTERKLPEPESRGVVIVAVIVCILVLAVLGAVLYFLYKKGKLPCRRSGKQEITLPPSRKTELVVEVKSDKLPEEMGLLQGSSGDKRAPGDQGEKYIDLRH
Put plainly: flow cytometry, human MCAM CHO cells preincubated with antibody, competitor recombinant human laminin 411 at 20 ug/ml. The method, then: The 87 independent mouse fusion clones and 26 independent rat fusion clones described in Example 10 above as being capable of (i) binding to human MCAM, and (ii) blocking the interaction between human MCAM and the α-4 chain of laminin were further characterized as follows. First, IC50 quantitation for the ability of the monoclonal antibody to block the binding of human MCAM to the α-4 chain of laminin was determined as follows. CHO cells expressing human MCAM were incubated with an anti-human MCAM antibody (at various concentrations) for 30 minutes at 4 degrees Celsius. […] Unbound laminin was then washed away, and the laminin bound to the surface of the cells was detected with fluorescently labeled anti-laminin antibodies. After washing, the amount of laminin bound to the surface was detected by flow cytometry, and IC50s were calculated based on the mean fluorescent intensity.
These six anti-MCAM monoclonal antibody clones are herein referred to as (i) the mouse anti-human MCAM monoclonal clones 1174.1.3, 1414.1.2, 1415.1.1, and 1749.1.3, and (ii) the rat anti-human MCAM monoclonal antibody clones 2120.4.19 and 2107.4.10. […] As such, each of these specific monoclonal antibodies was very capable of binding to human MCAM and inhibiting the interaction of cell-expressed human MCAM with its α-4 laminin binding ligand.
(In general: A flow cytometer gives signals particle by particle.)

Assay [6] addresses T6, recombinant hMCAM-His (human, UniProt P43121 24-559).
T6 construct: not shown: His tag
T6 chain: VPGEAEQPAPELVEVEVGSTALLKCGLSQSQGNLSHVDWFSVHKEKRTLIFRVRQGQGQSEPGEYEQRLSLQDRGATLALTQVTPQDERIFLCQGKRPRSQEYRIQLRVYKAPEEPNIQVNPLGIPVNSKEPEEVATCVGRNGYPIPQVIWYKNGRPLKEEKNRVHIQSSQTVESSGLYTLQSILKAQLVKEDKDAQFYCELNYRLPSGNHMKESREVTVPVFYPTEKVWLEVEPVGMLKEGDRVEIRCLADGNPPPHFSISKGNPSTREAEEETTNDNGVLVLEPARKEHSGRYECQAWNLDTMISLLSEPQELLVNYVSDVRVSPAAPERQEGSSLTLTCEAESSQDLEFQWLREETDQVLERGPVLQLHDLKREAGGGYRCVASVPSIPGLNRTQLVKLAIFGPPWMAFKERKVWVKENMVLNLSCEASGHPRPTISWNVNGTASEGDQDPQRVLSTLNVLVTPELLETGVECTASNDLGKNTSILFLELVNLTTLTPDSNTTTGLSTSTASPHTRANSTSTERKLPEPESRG
Put plainly: competitive ELISA on hMCAM-His, competitor biotinylated rodent or chimeric 1749; Expt. #2; vs rodent 1749. As to the method: (§1) ELISA plates were coated with recombinant hMCAM-His, and blocked with casein buffer to prevent non-specific binding. Biotinylated rodent or chimeric antibody was added at a subsaturating concentration, in the presence or absence of 3× increasing concentrations of unlabeled competitor (humanized antibody, rodent, or chimeric). After washing to remove unbound antibody, streptavidin HRP was added to allow detection of the biotinylated antibody. The ELISA was developed with TMB substrate and the OD450 was measured. The IC50 of the unlabeled competitor was determined using the GraphPad Prism5 software.
On the technique in general: In an ELISA, binding on a coated surface is turned into a signal by an enzyme label.

Assay [7] deals with T6, recombinant hMCAM-His. As to the kind of experiment: ForteBio Octet Red, hMCAM-His analyte; Expt. #2; vs rodent 1749. The method, then:
(§2) The affinities were measured using the ForteBio Octet Red. Anti-human Fc sensors were used to capture the humanized antibodies, and several concentrations of hMCAMHis analyte were used to determine the affinity using a 1:1 fitting model.

The target in assay [8] is T5, human MCAM (melanoma cell adhesion …). As to the kind of experiment: laminin/FACS on hMCAM CHO cells, competitor laminin 411; Expt#2; vs rodent 1749. As to the method:
(§3) Following incubation for 30-45 minutes, the cells were washed and anti-laminin conjugated to AF650 (NovusBio) was added to detect the bound laminin. The cells were run on a flow cytometer to measure the laminin binding signal.

Assay [9] concerns the target T6, recombinant hMCAM-His. As to the kind of experiment: competitive ELISA on hMCAM-His, competitor biotinylated rodent or chimeric 1749; Expt. #1; vs rodent 1749. As to the method: as §1
The target in assay [10] is T6, recombinant hMCAM-His. Put plainly: ForteBio Octet Red, hMCAM-His analyte; Forte column 1; vs rodent 1749. The method, then: as §2
The target in assay [11] is T5, human MCAM (melanoma cell adhesion …). Put plainly: laminin/FACS on hMCAM CHO cells, competitor laminin 411; Expt#1; vs rodent 1749. As to the method:
as §3

Assay [12] shares this target. Put plainly: laminin/FACS blocking assay, % inhibition of laminin 411 binding to hMCAM-expressing CHO cells against antibody concentration; blocked ligand: laminin 411. As to the method: as §3
Assay [13] concerns the target T6, recombinant hMCAM-His. Put plainly: ForteBio Octet Red, hMCAM-His analyte; Expt. #1; vs rodent 2107. As to the method:
as §2

Assay [14] addresses T5, human MCAM (melanoma cell adhesion …). Put plainly: summary of laminin blocking assay on hMCAM CHO cells, competitor laminin 411; vs rodent 2107. The method, then: as §3
Assay [15] addresses T6, recombinant hMCAM-His. Put plainly: competitive ELISA on hMCAM-His, competitor biotinylated rodent or chimeric 2107; Expt. #1; vs rodent 2107. The method, then: as §1
For assay [16], the target named is T6, recombinant hMCAM-His. Put plainly: summary of ForteBio and competitive ELISA on hMCAM-His; vs rodent 2107. As to the method: as §1, §2

B1: mouse anti-human MCAM monoclonal antibody clone 1415.1.1 (antibody, V domains shown)
VH: QVQLQQPGAELVQPGAPVKLSCKASGYIFTSYWMNWVKQRPGRGLEWIGRIDPSDSKIHYNQKFKDKATLTVDRSSSTAYIQLGSLTSEDSAVYYCAKEGGLRRGDYAMDYWGQGTSVTVSS
VL: DIVMTQSPATLSVTPGDRVSLSCRASQSISDYLHWYQQKSHESPRLLIKYASQSISGIPSRFSGSGSGSDFTLSINSVEPEDVGVYYCQNGHNFPRTFGGGTKLEIK
notes: mouse hybridoma antibody
Regarding B1, the binding result in assay [1] was “no binding”; in [2] it was “binds”; in assay [3] it was “no binding”; in assay [4], “no binding”. In [5], the concentration for half-maximal inhibition (IC50) worked out at 0.307 µg/mL.

B2: mouse anti-human MCAM monoclonal antibody clone 1174.1.3 (antibody, V domains shown)
VH: QIQLVQSGPELKKPGETVKISCKASGYTFTNYGMNWVKQAPGKGLKWMGWINTYTGEPTYADDFKGRFALSLETSASTAYLQINNLKNEDMATYFCARYRYNKYERAMDYWGQGTSVTVSS
VL: DIVLTQSPASLAVSLGQRATISCRASKSVSTSGYSYMYWYQQKPGQPPKLLIYLASNLESGVPARFSGSGSGTDFTLNIHPVEEEDAATYYCQHSRELPFTFGSGTKLEIK
notes: mouse hybridoma antibody
As to B2, the binding result in assay [1] is “no binding”; in assay [2] it was “binds”; in assay [3], “no binding”; in [4], “no binding”. The IC50 in assay [5] amounted to 0.469 µg/mL.

B3: chimeric 1749 (antibody, V domains shown)
VH: DVKLVESGGDLVKPGGSLKLSCAASGFTFSSYIMSWVRQTPEKRLEWVATISSGGSSTYYPDSVKGRFTISRDNAKNTLYLQMSSLKSEDTAMYYCTRDDDYDVKVFAYWGQGTLVTVSA
VL: DIVMSQSPSSLAVSAGEKVTMNCKSSRSLLNSRIRKNYLAWYQQKPGQSPKLLIYWASTRESGVPDRFTGSGSGTDFTLTISSVQAEDLAVYYCKQSYNLLTFGAGTKLELK
For B3, the “fold over rodent (competitive ELISA)” value is 0.97 fold with recombinant hMCAM-His [6] and 0.81 fold with recombinant hMCAM-His [9]. The “fold over rodent (Forte affinity)” value with recombinant hMCAM-His [7] was found to be 0.79 fold; with recombinant hMCAM-His [10], 0.6 fold. The “fold over rodent (blocking, laminin/FACS)” value in [8] and in assay [11] was 1.4 fold throughout. In assay [12], the “IC50 (read off the curve)” value was approximately 0.5 µg/mL.

B4: mouse anti-human MCAM monoclonal antibody clone 1414.1.2 (antibody, V domains shown)
VH: EIQLQQTGPELVKPGASVKISCKASGYSFTDYIMLWVKQSHGKSLEWIGNINPYSGSSGYNLKFKGKATLTVDKSSSTAYMQLNSLTSEDSAVYYCARGKDFAMDYWGQGTSVTVSS
VL: DIVMSQSPSSLAVSAGEKVTMSCKSSQSLLNSSTRKNFLAWYQQKPGQSPKLLIYWASTRESGVPDRFTGSGSGTDFTLTISSVQAEDLAVYYCKQSYNRYTFGGGTKLEIK
notes: mouse hybridoma antibody
As to B4, the binding result is given as “no binding” in assay [1], “binds” in assay [2], “no binding” in [3] and “no binding” in [4]. The IC50 in assay [5] stood at 0.431 µg/mL.

B5: h2107_VH3 + h2107_VL2 (antibody, human IgG1, V domains shown)
VH: QVTLKESGPVLVKPTETLTLTCTVSGFSLTSNGVSWVRQPPGKALEWIAAISSGGSTYYNSAFKSRLTISRNTSKSQVVLTMTNMDPVDTATYYCARHRPFYFDYWGQGTLVTVSS
VL: DIQMTQSPSSLSASVGDRVTITCKGSQNIYKSLAWFQLKPGKVPKLLIYDANSLQTGIPSRFSGSGSGTDFTLTISSLQPEDVATYYCQQYYSGYTFGGGTKVEIK
notes: also called VH3VL2
Consider B5, for which, in the assay with recombinant hMCAM-His [13], the “fold over rodent (Forte affinity)” value came to 2.54 fold. Further, the “fold reduction in potency compared to the rodent” value in assay [14] was less than 3 fold. Further, the “fold over rodent (competitive ELISA)” value in the assay with recombinant hMCAM-His [15] is 1.62 fold. The “fold reduction in affinity compared to the rodent” value with recombinant hMCAM-His [16] is less than 3 fold.
